Results: US11591580B2, “K85 mutation-containing plant EPSPS mutant, and encoding gene and application thereof” (GEVOTO LLC, priority 2017, dated 2023)

Key:
[1] = system: EPSPS defective E. coli (E. coli DH5α with EPSPS gene and C-P Lyase gene being knocked out, EDCE); test: growth of E. coli transformed by genes encoding rice EPSPS (wild type and mutants) in culture media containing different glyphosate concentrations (Example 5, FIG. 1); type: cell-based; conditions: for EPSPS enzyme activity: concluded from growth of EPSPS defective E. coli at 0 mM glyphosate; for growth of transformed E. coli: culture media containing 1 mM glyphosate
From the text: E. coli transformed by the gene (SEQ ID NO: 3) encoding the rice EPSPS mutant I provided in Example 1 was taken as Experiment Group 1 (only containing a mutation K100(85)I).
E. coli transformed by the gene (with a nucleotide sequence represented by SEQ ID NO: 5, and an amino acid sequence of the encoded rice EPSPS mutant is represented by SEQ ID NO: 6) encoding the rice EPSPS mutant that contains only mutations G111(96)A and P116(101)S but no mutation K100(85)I was taken as Experiment Group 2.
E. coli transformed by the gene (SEQ ID NO: 7) encoding the rice EPSPS mutant II provided in Example 2 was taken as Experiment Group 3 (the encoded rice EPSPS mutant II contained three mutations: K100(85)I, G111(96)A and P116(101)S).
E. coli transformed by the gene (SEQ ID NO: 1, which encoded the wild-type rice EPSPS represented by SEQ ID NO: 2) encoding the wild-type rice EPSPS was taken as a control group.
The glyphosate resistance of the gene encoding the rice EPSPS mutant I and the rice EPSPS mutant I encoded thereby in E. coli, and the glyphosate resistance of the gene encoding the rice EPSPS mutant II and the rice EPSPS mutant II encoded thereby in E. coli were verified by detecting the growth situation of the transformed E. coli in culture media (culture media obtained by adding a certain concentration of antibiotics Spec (Spectinomycin), Gen (Gentamycin), Amp (Ampicillin) and glyphosate of different concentrations, with M9 as a basal culture medium) containing different glyphosate concentrations (0 mM, 1 mM, 10 mM, and 50 mM).
In the above, the E. coli used was double knockout E. coli, namely, EPSPS defective E. coli (E. coli DH5α with EPSPS gene and C-P Lyase gene being knocked out, named as EDCE, wherein for a preparation method thereof, reference can be made to a Chinese invention patent with the filing number CN2016103256926).
The detection method is a method commonly known in the art, and is briefly described as follows: synthesizing the gene encoding the rice EPSPS mutant by using a chemical synthesis method, introducing enzyme sites (Pac1 and Sbf1) at two ends thereof, connecting to an expression vector (for example, a pADV5 vector, the structure of which is shown in FIG. 4) that had undergone the same restriction enzyme digestion treatment under the action of ligase after restriction enzyme digestion, then transforming double knockout E. coli, picking positive colonies after verification, inoculating the positive colonies to a culture medium containing glyphosate for growth, and observing the growth situation.
Results are as shown in FIG. 1 (wherein R0 is a control group, R1 is Experiment Group 1, R2 is Experiment Group 2, and R3 is Experiment Group 3).

[2] = system: transgenic rice seedlings; test: glyphosate resistance of the EPSPS mutant in transgenic rice plants sprayed with glyphosate (Example 8, Table 1); type: in vivo, rice (Nipponbare); conditions: for glyphosate resistance of transformed rice seedlings (in words): glyphosate sprayed at the 1× dosage
From the text: A method for detecting the glyphosate resistance of the G1 soybean EPSPS mutant (SEQ ID NO: 20), G2 soybean EPSPS mutant (SEQ ID NO: 22) and G3 soybean EPSPS mutant (SEQ ID NO: 24) provided in Example 7, the R1 rice EPSPS mutant (SEQ ID NO: 4) provided in Example 5, and the Z1 maize EPSPS mutant (SEQ ID NO: 12) provided in Example 6 in the transgenic rice is as follows:
The plasmids (containing the EPSPS mutant gene) of the monoclonal resistant bacteria of pADV5-EPSPS in Examples 1-7 were extracted by a conventional method, followed by double enzyme digestion by Pac1 and BstEII, the small fragments were collected, and then the small fragments were ligated, using T4 DNA ligase, to the pGVP1 vectors that had undergone the same double enzyme digestion, to obtain a pGVP1-EPSPS vector having a structure as shown in FIG. 8.
In the present example, the glyphosate resistance of the EPSPS mutant in transgenic rice plants were verified. An experiment method is as follows:
The transgenic rice seedlings transplanted were uniformly arranged in a same experiment area (preventing leaves from overlapping). The areas occupied by the experiment groups and the control group were calculated, and according to the areas, glyphosate was sprayed at a 1× dosage of 1060 g/hectare (0.106 g/m^2). 2× dosage was 2120 g/hectare, 5× dosage was 5300 g/hectare, and 20× dosage was 21200 g/hectare.
Commercially available Roundup® 41% ammonium glyphosate was used. Roundup® ammonium glyphosate with corresponding volumes was taken according to the above sprayed concentrations, then diluted with 20 times of volume of water, and then uniformly sprayed on the plants in the experiment groups and the control group. After leaf surfaces were dry, the plants were moved into greenhouse or outdoor to cultivate.
After the glyphosate was sprayed at the 1× dosage, growth states of the plants in each group were observed and recorded on a 10th day, and glyphosate was sprayed to the survived plants at the 2× dosage. The growth states of the plants in each group were observed and recorded 10 days later, and glyphosate was sprayed to the survived plants at the 5× dosage. The growth states of the plants in each group were observed and recorded 10 days later, and glyphosate was sprayed to the survived plants at the 20× dosage. The growth states of the plants in each group were observed and recorded 10 days later, and results are shown in Table 1, wherein corresponding numbers of plants denoted by −, +, ++ and +++ are listed, and “%++&+++” is percentage of plant having medium and high glyphosate resistance to the total number of plants observed.

[3] = 1X dosage (1060 g/hectare glyphosate), recorded on 10th day
[4] = 2X dosage (2120 g/hectare) sprayed to plants surviving 1X, recorded 10 days later
[5] = 5X dosage (5300 g/hectare) sprayed to plants surviving 2X, recorded 10 days later
[6] = 20X dosage (21200 g/hectare) sprayed to plants surviving 5X, recorded 10 days later

B1: R0: wild-type rice EPSPS represented by SEQ ID NO: 2; control group of Example 5 (protein, listed as Oryza sativa)
chain: MASNAAAAAAKAEEIVLQPIREISGAVQLPGSKSLSNRILLLSALSEGTTVVDNLLNSEDVHYMLEALKALGLSVEADKVAKRAVVVGCGGKFPVEKDAKEEVQLFLGNAGTAMRPLTAAVTAAGGNATYVLDGVPRMRERPIGDLVVGLKQLGADVDCFLGTECPPVRVKGIGGLPGGKVKLSGSISSQYLSALLMAAPLALGDVEIEIIDKLISIPYVEMTLRLMERFGVKAEHSDSWDRFYIKGGQKYKSPGNAYVEGDASSASYFLAGAAITGGTVTVQGCGTTSLQGDVKFAEVLEMMGAKVTWTDTSVTVTGPPREPYGKKHLKAVDVNMNKMPDVAMTLAVVALFADGPTAIRDVASWRVKETERMVAIRTELTKLGASVEEGPDYCIITPPEKLNITAIDTYDDHRMAMAFSLAACADVPVTIRDPGCTRKTFPNYFDVLSTFVRN
Which EPSPS enzyme activity [1] does the source give for B1 here?
The EPSPS enzyme activity was “normal EPSPS enzyme activity”.

And the “growth of transformed E. coli” value [1]?
The value was “grew slowly”.

And the “% ++&+++ (percentage of plant having medium and high glyphosate resistance to the total number of plants observed)” value [2, 3]?
Its value is 0.0%.

And the “number of plants with resistance + (low glyphosate resistance)” value (from here on “number … (low glyphosate resistance)”) [2, 3]?
Its value is 1.

What about the “number of plants with resistance ++ (medium glyphosate resistance)” value (from here on “number … (medium glyphosate resistance)”) [2, 3] of the same molecule?
The value was 0.

And the “number of plants with resistance +++ (high glyphosate resistance)” value (from here on “number of plants with resistance +++”) [2, 3]?
The value was 0.

What about the “number of plants with resistance − (no glyphosate resistance)” value (“number … (no glyphosate resistance)” for short) [2, 3] of the same molecule?
Its value is 30.

And the “% ++&+++ (percentage of plant having medium and high glyphosate resistance to the total number of plants observed)” value [2, 4]?
The value was 0.0%.

And the “number … (low glyphosate resistance)” value [2, 4]?
Its value is 0.

What about the “number … (medium glyphosate resistance)” value [2, 4] of the same molecule?
The value was 0.

What about the “number of plants with resistance +++” value [2, 4] of the same molecule?
Its value is 0.

What about the “number … (no glyphosate resistance)” value [2, 4] of the same molecule?
Its value is 31.

And the “% ++&+++ (percentage of plant having medium and high glyphosate resistance to the total number of plants observed)” value [2, 5]?
Its value is 0.0%.

And the “number … (low glyphosate resistance)” value [2, 5]?
The value was 0.

What about the “number … (medium glyphosate resistance)” value [2, 5] of the same molecule?
Its value is 0.

And the “number of plants with resistance +++” value [2, 5]?
The value was 0.

And the “number … (no glyphosate resistance)” value [2, 5]?
Its value is 31.

And the “% ++&+++ (percentage of plant having medium and high glyphosate resistance to the total number of plants observed)” value [2, 6]?
Its value is 0.0%.

And the “number … (low glyphosate resistance)” value [2, 6]?
The value was 0.

And the “number … (medium glyphosate resistance)” value [2, 6]?
Its value is 0.

What about the “number of plants with resistance +++” value [2, 6] of the same molecule?
Its value is 0.

What about the “number … (no glyphosate resistance)” value [2, 6] of the same molecule?
Its value is 31.

And the “glyphosate resistance of transformed rice seedlings (in words)” value [2]?
Its value is “had no resistance, one was seriously damaged, and all the others died”.

B2: R1: rice EPSPS mutant I, SEQ ID NO: 4, containing one mutation K100(85)I (protein)
chain: MASNAAAAAAKAEEIVLQPIREISGAVQLPGSKSLSNRILLLSALSEGTTVVDNLLNSEDVHYMLEALKALGLSVEADKVAKRAVVVGCGGKFPVEKDAIEEVQLFLGNAGTAMRPLTAAVTAAGGNATYVLDGVPRMRERPIGDLVVGLKQLGADVDCFLGTECPPVRVKGIGGLPGGKVKLSGSISSQYLSALLMAAPLALGDVEIEIIDKLISIPYVEMTLRLMERFGVKAEHSDSWDRFYIKGGQKYKSPGNAYVEGDASSASYFLAGAAITGGTVTVQGCGTTSLQGDVKFAEVLEMMGAKVTWTDTSVTVTGPPREPYGKKHLKAVDVNMNKMPDVAMTLAVVALFADGPTAIRDVASWRVKETERMVAIRTELTKLGASVEEGPDYCIITPPEKLNITAIDTYDDHRMAMAFSLAACADVPVTIRDPGCTRKTFPNYFDVLSTFVRN
modifications: Oryza sativa EPSPS mutant with mutation K100(85)I
Which results are given for B2?
EPSPS enzyme activity [1]: normal EPSPS enzyme activity; growth of transformed E. coli [1]: obviously grew better than the control group (R0); % ++&+++ (percentage of plant having medium and high glyphosate resistance to the total number of plants observed) [2, 3]: 88.9%; number of plants with resistance + (low glyphosate resistance) [2, 3]: 0; number of plants with resistance ++ (medium glyphosate resistance) [2, 3]: 0; number of plants with resistance +++ (high glyphosate resistance) [2, 3]: 16; number of plants with resistance − (no glyphosate resistance) [2, 3]: 2; % ++&+++ (percentage of plant having medium and high glyphosate resistance to the total number of plants observed) [2, 4]: 27.8%; number of plants with resistance + (low glyphosate resistance) [2, 4]: 5; number of plants with resistance ++ (medium glyphosate resistance) [2, 4]: 4; number of plants with resistance +++ (high glyphosate resistance) [2, 4]: 1; number of plants with resistance − (no glyphosate resistance) [2, 4]: 8; % ++&+++ (percentage of plant having medium and high glyphosate resistance to the total number of plants observed) [2, 5]: 11.1%; number of plants with resistance + (low glyphosate resistance) [2, 5]: 3; number of plants with resistance ++ (medium glyphosate resistance) [2, 5]: 2; number of plants with resistance +++ (high glyphosate resistance) [2, 5]: 0; number of plants with resistance − (no glyphosate resistance) [2, 5]: 13; % ++&+++ (percentage of plant having medium and high glyphosate resistance to the total number of plants observed) [2, 6]: 0.0%; number of plants with resistance + (low glyphosate resistance) [2, 6]: 2; number of plants with resistance ++ (medium glyphosate resistance) [2, 6]: 0; number of plants with resistance +++ (high glyphosate resistance) [2, 6]: 0; number of plants with resistance − (no glyphosate resistance) [2, 6]: 16; glyphosate resistance of transformed rice seedlings (in words) [2]: obviously superior to that of the rice seedlings transformed by R0
